From the supplement of paper PMC10126150
± gives the standard deviation of the averaged measurements.

tested on: ATP; experiment: switch fluorescence ratio, 500 uM ATP over buffer (Cy3 cluster intensity, sum of 5 cycles each) (fold (ratio)); higher = stronger signal-on switching upon ATP binding; sequences stand for … in TCGTCGGCAGCGTCAGATGTGTATAAGAGACAGTTTTTTTTTTTTTTTTTTTTTTTTT…TC; conditions: aptamer strand: ATP DNA aptamer (quencher-CACCTGGGGGAGTATTGCGGAGGAAGG + anchor), 100 nM annealed; ATP concentration: 500 uM
Method in brief: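 Switching-strand clusters labelled with Cy3 on a modified Illumina MiSeq flow-cell were annealed to 100 nM quencher-labelled ATP aptamer, imaged in selection buffer, and re-imaged after 15 min with 500 uM ATP at 22 °C. This was done over five cycles with NaOH stripping and re-annealing in between. The fluorescence ratio is summed target-cycle over summed buffer-cycle Cy3 intensity per cluster, averaged per switch-domain sequence, excluding clusters outside 100-1000 RFU.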
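Note: ATP exposure 15 min at 22 °C before imaging.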

| Sequence | switch fluorescence ratio |
| --- | --- |
| GACTTTTTGG | 0.998 ± 0.027 |
| GAGAAACCGG | 1.03 ± 0.019 |
| GAGAAATGTG | 1.03 ± 0.011 |
| GAGAAGAAGC | 1 ± 0.025 |
| GAGAAGGATT | 0.99 ± 0.046 |
| GAGAATCGGA | 0.965 ± 0.012 |
| GAGACATTGG | 1 ± 0.062 |
| GAGACCTATT | 0.993 ± 0.035 |
| GAGAGCTATC | 0.9848 ± 0.0024 |
| GAGAGCTTGT | 0.956 ± 0.027 |
| GAGAGGAGGT | 1.022 ± 0.0029 |
| GAGAGGGAGG | 0.979 ± 0.015 |
| GAGAGGGATT | 1.03 ± 0.015 |
| GAGAGGGGAA | 1.01 ± 0.009 |
| GAGAGGGGAG | 0.983 ± 0.025 |
| GAGAGGGGGA | 0.97 ± 0.036 |
| GAGAGGGGGG | 1 ± 0.025 |
| GAGAGGGTTT | 1 ± 0.011 |
| GAGAGTAATT | 1.01 ± 0.051 |
| GAGAGTATTT | 0.995 ± 0.073 |
| GAGAGTGGGG | 0.985 ± 0.037 |
| GAGAGTTGGT | 1.007 ± 0.0073 |
| GAGAGTTTAA | 1.013 ± 0.0051 |
| GAGATAAAAG | 1.01 ± 0.03 |
| GAGATAGTGT | 0.991 ± 0.036 |

| Sequence | switch fluorescence ratio |
| --- | --- |
| GAGATAGTTT | 0.995 ± 0.042 |
| GAGATGAGGA | 0.97 ± 0.024 |
| GAGATGGGGT | 0.995 ± 0.016 |
| GAGATGTCTT | 0.9833 ± 0.0078 |
| GAGATTGGGA | 1.04 ± 0.045 |
| GAGATTTAGG | 0.969 ± 0.034 |
| GAGATTTATT | 0.985 ± 0.057 |
| GAGATTTCAT | 0.982 ± 0.036 |
| GAGATTTGGA | 1.03 ± 0.029 |
| GAGCAAAAAG | 1.05 ± 0.042 |
| GAGCAACCTT | 1.45 ± 0.014 |
| GAGCAGAGGT | 0.984 ± 0.011 |
| GAGCAGGTTT | 1.6 ± 0.92 |
| GAGCCCAGGG | 1.96 ± 0.82 |
| GAGCCGCCAG | 1.03 ± 0.045 |
| GAGCCTCGGA | 1.29 ± 0.44 |
| GAGCGATGGT | 1.12 ± 0.021 |
| GAGCGCGATT | 1.03 ± 0.036 |
| GAGCGGTATC | 0.997 ± 0.043 |
| GAGCGTGTGA | 1.02 ± 0.019 |
| GAGCTAGGAA | 0.981 ± 0.058 |
| GAGCTAGGGA | 1.011 ± 0.0013 |
| GAGCTATGGG | 0.983 ± 0.043 |
| GAGCTATTCG | 1.01 ± 0.047 |
| GAGCTCGTGG | 1.03 ± 0.051 |

| Sequence | switch fluorescence ratio |
| --- | --- |
| GAGCTGACTT | 1.02 ± 0.016 |
| GAGCTGGGTG | 1.09 ± 0.043 |
| GAGCTGTATG | 1.03 ± 0.014 |
| GAGCTTCTCT | 1.0194 ± 9.9e-05 |
| GAGCTTTTGG | 1.03 ± 0.068 |
| GAGGAAATGG | 1.024 ± 0.0046 |
| GAGGAAATTG | 0.963 ± 0.054 |
| GAGGAAGTCT | 1.03 ± 0.026 |
| GAGGAATGGC | 0.9828 ± 0.0022 |
| GAGGAGCTTG | 0.94 ± 0.096 |
| GAGGAGGGAG | 0.998 ± 0.014 |
| GAGGAGGTTG | 1.027 ± 0.003 |
| GAGGATGTTA | 1.03 ± 0.036 |
| GAGGCAGAAA | 1.09 ± 0.044 |
| GAGGCAGAAT | 1.03 ± 0.012 |
| GAGGCGTACG | 1.04 ± 0.021 |
| GAGGCGTGTG | 0.985 ± 0.029 |
| GAGGCTTGGG | 0.99 ± 0.011 |
| GAGGGAAACA | 1.01 ± 0.017 |
| GAGGGAAACT | 1.05 ± 0.11 |
| GAGGGAATCG | 0.9635 ± 0.001 |
| GAGGGAGAAA | 1.03 ± 0.038 |
| GAGGGAGATG | 1.03 ± 0.018 |
| GAGGGATATA | 0.996 ± 0.043 |
| GAGGGATGTA | 1.01 ± 0.022 |

| Sequence | switch fluorescence ratio |
| --- | --- |
| GAGGGATTGG | 1.05 ± 0.12 |
| GAGGGCACGA | 1.09 ± 0.086 |
| GAGGGCAGCA | 1.01 ± 0.048 |
| GAGGGCCTCA | 1 ± 0.033 |
| GAGGGCGGGA | 1.01 ± 0.047 |
| GAGGGCGTTT | 0.98 ± 0.027 |
| GAGGGCTTTT | 0.98 ± 0.017 |
| GAGGGGAAAA | 0.99 ± 0.04 |
| GAGGGGAGGG | 1.04 ± 0.065 |
| GAGGGGATTT | 1.01 ± 0.013 |
| GAGGGGCCTG | 1.01 ± 0.083 |
| GAGGGGCGCC | 0.987 ± 0.016 |
| GAGGGGCGGT | 1.02 ± 0.026 |
| GAGGGGCGTG | 1 ± 0.022 |
| GAGGGGCTGG | 0.984 ± 0.046 |
| GAGGGGGACT | 1.13 ± 0.19 |
| GAGGGGGAGC | 1.03 ± 0.089 |
| GAGGGGGATG | 0.979 ± 0.026 |
| GAGGGGGGAT | 1.01 ± 0.033 |
| GAGGGGGGGA | 1 ± 0.044 |
| GAGGGGTGTC | 0.978 ± 0.03 |
| GAGGGGTTG | 0.988 ± 0.034 |
| GAGGGTATTA | 1.02 ± 0.019 |
| GAGGGTCGTG | 0.9629 ± 0.0013 |
| GAGGGTCTTT | 0.969 ± 0.025 |
